Source: the supplement of paper PMC9876800

What follows are substances tested on peptide library, one residue held at a place counted from the S/T acceptor (assay: relative phosphorylation of the sub-library (ratio to the mean residue at this position); human; higher = residue favoured). Conditions: E fixed; at +4.
Method in brief: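 Human or orthologue kinase constructs, purified and recombinant, were incubated under kinase-specific conditions in 384-well plates with biotinylated degenerate peptide sub-libraries. Each sub-library fixed one residue at one position around a central Ser/Thr. Incubations lasted 90 min with peptides at 50 μM and 50 μM ATP spiked with γ-32P-ATP, after which spots on streptavidin membranes were phosphorimaged and quantified by densitometry. Relative sub-library phosphorylation is a ratio to the mean residue at that position.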

Sequence of TP53RK, construct: Full length (Q96S44 whole entry, looked up): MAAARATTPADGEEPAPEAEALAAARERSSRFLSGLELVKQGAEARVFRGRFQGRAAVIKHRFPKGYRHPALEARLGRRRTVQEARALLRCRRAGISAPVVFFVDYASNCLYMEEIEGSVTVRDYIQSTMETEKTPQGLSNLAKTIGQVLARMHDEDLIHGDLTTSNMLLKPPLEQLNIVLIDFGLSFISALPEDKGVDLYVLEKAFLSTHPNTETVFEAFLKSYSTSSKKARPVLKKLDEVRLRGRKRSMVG
Sequence of SGK3, construct: aa119-end (Q96BR1 119-496, looked up): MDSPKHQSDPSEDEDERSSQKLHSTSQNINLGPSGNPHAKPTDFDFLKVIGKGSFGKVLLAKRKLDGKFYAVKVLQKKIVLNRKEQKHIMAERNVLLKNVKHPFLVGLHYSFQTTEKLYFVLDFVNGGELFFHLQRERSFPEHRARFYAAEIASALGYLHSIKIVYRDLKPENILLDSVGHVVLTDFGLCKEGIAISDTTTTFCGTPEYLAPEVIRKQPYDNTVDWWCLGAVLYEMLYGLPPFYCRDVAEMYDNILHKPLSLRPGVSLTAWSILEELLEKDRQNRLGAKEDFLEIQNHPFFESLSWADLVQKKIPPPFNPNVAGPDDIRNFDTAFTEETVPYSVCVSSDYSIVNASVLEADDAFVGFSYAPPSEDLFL
Sequence of AURKB, construct: Full length (Q96GD4 whole entry, looked up): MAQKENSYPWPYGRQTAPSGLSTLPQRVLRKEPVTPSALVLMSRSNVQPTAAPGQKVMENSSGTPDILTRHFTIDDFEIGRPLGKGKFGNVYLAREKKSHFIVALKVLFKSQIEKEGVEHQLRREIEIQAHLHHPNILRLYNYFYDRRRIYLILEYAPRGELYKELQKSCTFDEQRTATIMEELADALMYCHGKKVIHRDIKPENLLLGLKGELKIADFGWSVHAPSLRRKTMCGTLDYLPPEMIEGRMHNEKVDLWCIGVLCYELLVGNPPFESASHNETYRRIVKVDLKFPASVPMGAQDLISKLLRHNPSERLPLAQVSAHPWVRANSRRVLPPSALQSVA
Sequence of NEK4, construct: Full length (P51957 whole entry, looked up): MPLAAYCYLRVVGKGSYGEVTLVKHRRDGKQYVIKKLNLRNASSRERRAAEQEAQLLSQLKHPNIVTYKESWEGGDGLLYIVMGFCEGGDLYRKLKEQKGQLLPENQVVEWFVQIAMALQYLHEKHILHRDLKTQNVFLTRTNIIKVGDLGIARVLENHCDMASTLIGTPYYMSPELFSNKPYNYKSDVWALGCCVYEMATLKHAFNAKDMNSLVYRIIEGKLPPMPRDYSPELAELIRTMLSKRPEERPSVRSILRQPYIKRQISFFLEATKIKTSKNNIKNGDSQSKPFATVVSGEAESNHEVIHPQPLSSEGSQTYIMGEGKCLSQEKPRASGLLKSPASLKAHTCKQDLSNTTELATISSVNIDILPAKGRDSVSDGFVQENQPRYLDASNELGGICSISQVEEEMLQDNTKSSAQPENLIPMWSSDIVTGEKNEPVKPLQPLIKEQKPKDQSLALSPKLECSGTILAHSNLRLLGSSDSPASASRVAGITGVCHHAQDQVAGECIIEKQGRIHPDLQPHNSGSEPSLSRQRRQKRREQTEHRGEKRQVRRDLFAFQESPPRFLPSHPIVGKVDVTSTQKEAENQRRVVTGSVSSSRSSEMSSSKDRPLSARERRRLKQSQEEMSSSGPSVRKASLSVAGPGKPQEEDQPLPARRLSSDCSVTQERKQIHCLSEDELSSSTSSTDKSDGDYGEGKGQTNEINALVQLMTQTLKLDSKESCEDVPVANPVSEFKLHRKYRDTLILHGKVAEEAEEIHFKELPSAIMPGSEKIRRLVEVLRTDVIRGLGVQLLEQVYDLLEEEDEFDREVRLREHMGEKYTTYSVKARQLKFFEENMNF
Sequence of GRK2, construct: Full length (P25098 whole entry, looked up): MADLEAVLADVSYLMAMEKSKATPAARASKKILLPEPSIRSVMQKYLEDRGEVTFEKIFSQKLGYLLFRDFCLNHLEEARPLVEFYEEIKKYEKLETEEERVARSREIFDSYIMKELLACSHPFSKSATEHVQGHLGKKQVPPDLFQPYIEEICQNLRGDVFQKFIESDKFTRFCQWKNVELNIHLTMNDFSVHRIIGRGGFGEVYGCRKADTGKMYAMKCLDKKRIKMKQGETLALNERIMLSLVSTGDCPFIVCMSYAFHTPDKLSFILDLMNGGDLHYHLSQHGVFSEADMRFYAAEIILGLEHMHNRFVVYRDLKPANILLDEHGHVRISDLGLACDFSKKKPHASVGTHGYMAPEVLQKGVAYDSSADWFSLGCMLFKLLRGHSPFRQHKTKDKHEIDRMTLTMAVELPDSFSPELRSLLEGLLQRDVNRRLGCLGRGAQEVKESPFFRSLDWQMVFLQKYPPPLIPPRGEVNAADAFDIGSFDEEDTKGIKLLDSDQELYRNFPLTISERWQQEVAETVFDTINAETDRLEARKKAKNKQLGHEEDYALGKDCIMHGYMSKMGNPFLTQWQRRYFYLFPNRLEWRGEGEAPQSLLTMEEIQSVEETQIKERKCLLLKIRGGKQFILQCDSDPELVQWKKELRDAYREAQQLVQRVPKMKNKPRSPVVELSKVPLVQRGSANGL
Sequence of NEK11, construct: Full length (Q8NG66 whole entry, looked up): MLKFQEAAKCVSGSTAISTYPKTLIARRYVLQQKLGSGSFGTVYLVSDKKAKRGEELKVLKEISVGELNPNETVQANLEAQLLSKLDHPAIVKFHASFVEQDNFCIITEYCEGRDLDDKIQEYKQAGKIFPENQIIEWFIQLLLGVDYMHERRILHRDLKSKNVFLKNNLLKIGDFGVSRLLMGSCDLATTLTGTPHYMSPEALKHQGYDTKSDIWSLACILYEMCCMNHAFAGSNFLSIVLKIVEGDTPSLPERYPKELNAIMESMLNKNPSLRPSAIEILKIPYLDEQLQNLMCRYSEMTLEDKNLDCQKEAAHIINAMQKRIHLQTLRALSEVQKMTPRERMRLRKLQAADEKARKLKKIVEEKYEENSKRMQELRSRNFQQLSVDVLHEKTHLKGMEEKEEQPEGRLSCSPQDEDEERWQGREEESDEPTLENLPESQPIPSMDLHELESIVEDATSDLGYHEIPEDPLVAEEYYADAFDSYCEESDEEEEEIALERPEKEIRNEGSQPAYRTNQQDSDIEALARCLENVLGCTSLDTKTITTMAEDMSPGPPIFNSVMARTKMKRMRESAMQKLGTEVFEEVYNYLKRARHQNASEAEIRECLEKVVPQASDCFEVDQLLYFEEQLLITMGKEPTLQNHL
Sequence of GRK7, construct: Full length (Q8WTQ7 whole entry, looked up): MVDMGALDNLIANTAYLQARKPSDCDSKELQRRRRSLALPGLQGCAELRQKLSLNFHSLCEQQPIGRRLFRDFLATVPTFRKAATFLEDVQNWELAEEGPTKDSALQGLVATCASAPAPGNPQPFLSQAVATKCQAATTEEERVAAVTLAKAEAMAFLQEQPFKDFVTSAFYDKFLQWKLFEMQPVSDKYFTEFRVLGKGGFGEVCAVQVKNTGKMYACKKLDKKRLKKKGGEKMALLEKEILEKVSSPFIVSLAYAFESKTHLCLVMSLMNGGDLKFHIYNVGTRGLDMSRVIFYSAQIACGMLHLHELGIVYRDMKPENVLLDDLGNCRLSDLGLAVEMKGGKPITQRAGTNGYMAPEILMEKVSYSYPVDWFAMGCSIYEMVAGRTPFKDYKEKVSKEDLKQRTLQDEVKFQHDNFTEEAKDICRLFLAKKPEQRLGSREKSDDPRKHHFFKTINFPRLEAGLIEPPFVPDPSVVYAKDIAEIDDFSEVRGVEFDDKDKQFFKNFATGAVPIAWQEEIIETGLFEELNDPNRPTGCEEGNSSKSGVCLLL

Substance	relative phosphorylation
GRK2, construct: Full length (from UniProt P25098)	1.25
NEK4, construct: Full length (from UniProt P51957)	0.66
AURKB, construct: Full length (from UniProt Q96GD4)	0.727
SGK3, construct: aa119-end (from UniProt Q96BR1)	0.892
GRK7, construct: Full length (from UniProt Q8WTQ7)	1.69

Same assay, conditions: E fixed; at -1

Substance	relative phosphorylation
NEK11, construct: Full length (from UniProt Q8NG66)	0.59
MKNK1, construct: Full length (D165-205) (from UniProt Q9BUB5)	0.342
TP53RK, construct: Full length (from UniProt Q96S44)	1
GRK2, construct: Full length (from UniProt P25098)	1.34
NEK4, construct: Full length (from UniProt P51957)	0.638
AURKB, construct: Full length (from UniProt Q96GD4)	0.433
SGK3, construct: aa119-end (from UniProt Q96BR1)	0.462
GRK7, construct: Full length (from UniProt Q8WTQ7)	1.31

Same assay, conditions: E fixed; at -2

Substance	relative phosphorylation
NEK11, construct: Full length (from UniProt Q8NG66)	0.579
MKNK1, construct: Full length (D165-205) (from UniProt Q9BUB5)	0.279
TP53RK, construct: Full length (from UniProt Q96S44)	1.04
GRK2, construct: Full length (from UniProt P25098)	3.01
NEK4, construct: Full length (from UniProt P51957)	0.505
AURKB, construct: Full length (from UniProt Q96GD4)	0.183
SGK3, construct: aa119-end (from UniProt Q96BR1)	0.194
GRK7, construct: Full length (from UniProt Q8WTQ7)	2.43

Same assay, conditions: E fixed; at -3

Substance	relative phosphorylation
NEK11, construct: Full length (from UniProt Q8NG66)	0.643
MKNK1, construct: Full length (D165-205) (from UniProt Q9BUB5)	0.315
TP53RK, construct: Full length (from UniProt Q96S44)	1.1
GRK2, construct: Full length (from UniProt P25098)	2.28
NEK4, construct: Full length (from UniProt P51957)	0.416
AURKB, construct: Full length (from UniProt Q96GD4)	0.422
SGK3, construct: aa119-end (from UniProt Q96BR1)	0.21
GRK7, construct: Full length (from UniProt Q8WTQ7)	1.75

Same assay, conditions: E fixed; at -4

Substance	relative phosphorylation
NEK11, construct: Full length (from UniProt Q8NG66)	0.659
MKNK1, construct: Full length (D165-205) (from UniProt Q9BUB5)	0.37
TP53RK, construct: Full length (from UniProt Q96S44)	0.973
GRK2, construct: Full length (from UniProt P25098)	1.54
NEK4, construct: Full length (from UniProt P51957)	0.733
AURKB, construct: Full length (from UniProt Q96GD4)	0.653
SGK3, construct: aa119-end (from UniProt Q96BR1)	0.661
GRK7, construct: Full length (from UniProt Q8WTQ7)	1.9

Same assay, conditions: E fixed; at -5

Substance	relative phosphorylation
NEK11, construct: Full length (from UniProt Q8NG66)	0.709
MKNK1, construct: Full length (D165-205) (from UniProt Q9BUB5)	0.404
TP53RK, construct: Full length (from UniProt Q96S44)	0.922
GRK2, construct: Full length (from UniProt P25098)	1.13
NEK4, construct: Full length (from UniProt P51957)	0.662
AURKB, construct: Full length (from UniProt Q96GD4)	0.511
SGK3, construct: aa119-end (from UniProt Q96BR1)	0.509
GRK7, construct: Full length (from UniProt Q8WTQ7)	2.03

Same assay, conditions: F fixed; at +1

Substance	relative phosphorylation
NEK11, construct: Full length (from UniProt Q8NG66)	2.35
MKNK1, construct: Full length (D165-205) (from UniProt Q9BUB5)	1.41
TP53RK, construct: Full length (from UniProt Q96S44)	1.12
GRK2, construct: Full length (from UniProt P25098)	1.27
NEK4, construct: Full length (from UniProt P51957)	1.03
AURKB, construct: Full length (from UniProt Q96GD4)	1.34
SGK3, construct: aa119-end (from UniProt Q96BR1)	2.98
GRK7, construct: Full length (from UniProt Q8WTQ7)	1.46

Same assay, conditions: F fixed; at +2

Substance	relative phosphorylation
NEK11, construct: Full length (from UniProt Q8NG66)	0.978
MKNK1, construct: Full length (D165-205) (from UniProt Q9BUB5)	0.677
TP53RK, construct: Full length (from UniProt Q96S44)	1.09
GRK2, construct: Full length (from UniProt P25098)	1.18
NEK4, construct: Full length (from UniProt P51957)	0.851
AURKB, construct: Full length (from UniProt Q96GD4)	1.05
SGK3, construct: aa119-end (from UniProt Q96BR1)	0.836
GRK7, construct: Full length (from UniProt Q8WTQ7)	0.843

Same assay, conditions: F fixed; at +3

Substance	relative phosphorylation
NEK11, construct: Full length (from UniProt Q8NG66)	1.48
MKNK1, construct: Full length (D165-205) (from UniProt Q9BUB5)	0.771
TP53RK, construct: Full length (from UniProt Q96S44)	1.04
GRK2, construct: Full length (from UniProt P25098)	1.13
NEK4, construct: Full length (from UniProt P51957)	1.73
AURKB, construct: Full length (from UniProt Q96GD4)	1.35
SGK3, construct: aa119-end (from UniProt Q96BR1)	1.09
GRK7, construct: Full length (from UniProt Q8WTQ7)	0.513

Same assay, conditions: F fixed; at +4

Substance	relative phosphorylation
NEK11, construct: Full length (from UniProt Q8NG66)	0.997
MKNK1, construct: Full length (D165-205) (from UniProt Q9BUB5)	0.706
TP53RK, construct: Full length (from UniProt Q96S44)	0.983
GRK2, construct: Full length (from UniProt P25098)	1.02
NEK4, construct: Full length (from UniProt P51957)	1.03
AURKB, construct: Full length (from UniProt Q96GD4)	0.856
SGK3, construct: aa119-end (from UniProt Q96BR1)	0.843
GRK7, construct: Full length (from UniProt Q8WTQ7)	0.682

Same assay, conditions: F fixed; at -1

Substance	relative phosphorylation
NEK11, construct: Full length (from UniProt Q8NG66)	0.918
MKNK1, construct: Full length (D165-205) (from UniProt Q9BUB5)	0.395
TP53RK, construct: Full length (from UniProt Q96S44)	0.998
GRK2, construct: Full length (from UniProt P25098)	1.02
NEK4, construct: Full length (from UniProt P51957)	0.868
AURKB, construct: Full length (from UniProt Q96GD4)	0.678
SGK3, construct: aa119-end (from UniProt Q96BR1)	0.672
GRK7, construct: Full length (from UniProt Q8WTQ7)	0.512
